# Test results reported in the DeepSol protein solubility set.
# Assay: soluble on expression in E. coli; label from the status in PepcDB or PDB records
row,Sequence,soluble on expression in E. coli
1,MEKIERLRSAFDEAGIDGILLTNEHSRRYMANFTGTAGVVLISKKRAQFITDFRYVEQASKQAVGYEIVQHAGLIIDEVAKQVKELGIQKLGFEQDTLTYSSYSAHKEAIDAEFIPTSGLVEKLRLIKTDSEIKILKEAAQIADAAFEHILSFIRPGVSEIEVSNELEFFMRKQGATSSSFDIIVASGLRSALPHGVASEKVIETGDFVTLDFGAYYKGYCSDITRTIAVGEPSDKLKEIYNIVLEAQLRGVNGIKAGLTGREADALTRDYITEKGYGEYFGHSTGHGIGLEIHEAPGLAFRSDTVLEPGMAVTVEPGIYIPGIGGVRIEDDIIVTSEGNEVITKSPKELIIL,not soluble
2,MGSDKIHHHHHHMETQNKPTVTDIDRPILVPPGGHKKVLLHSCCAPCSGEVMEAMLASGIDYTIYFYNPNIHPHKEYMLRKEENVRFAEKFGIPFIDKDDDYENDRKEWFAKAKGMEFEPERGIRCTMCFDMRFEKAAQYAHEHGFPVFTSSLGISRWKNMNQINDCGRRAAAPYDDVVYWDFNWRKGGGSARMIEISKRENFYQQEYCGCAYSLRDSNAHRKSQGRIPIKLGVLYYGDESTQYEPAPIRVDK,not soluble
3,MGFWCRMSENQEQEEVITVRVQDPRVQNEGSWNSYVDYKIFLHTNSKAFTAKTSCVRRRYREFVWLRKQLQRNAGLVPVPELPGKSTFFGTSDEFIEKRRQGLQHFLEKVLQSVVLLSDSQLHLFLQSQLSVPEIEACVQGRSTMTVSDAILRYAMSNCGWAQEERQSSSHLAKGDQPKSCCFLPRSGRRSSPSPPPSEEKDHLEVWAPVVDSEVPSLESPTLPPLSSPLCCDFGRPKEGTSTLQSVRRAVGGDHAVPLDPGQLETVLEK,soluble
4,MEGIDMLDIKLIRENPELVKNDLIKRGELEKVKWVDEILKLDTEWRTKLKEINRLRHERNKIAVEIGKRRKKGEPVDELLAKSREIVKRIGELENEVEELKKKIDYYLWRLPNITHPSVPVGKDENDNVPIRFWGKARVWKGHLERFLEQSQGKMEYEILEWKPKLHVDLLEILGGADFARAAKVSGSRFYYLLNEIVILDLALIRFALDRLIEKGFTPVIPPYMVRRFVEEGSTSFEDFEDVIYKVEDEDLYLIPTAEHPLAGMHANEILDGKDLPLLYVGVSPCFRKEAGTAGKDTKGIFRVHQFHKVEQFVYSRPEESWEWHEKIIRNAEELFQELEIPYRVVNICTGDLGYVAAKKYDIEAWMPGQGKFREVVSASNCTDWQARRLNIRFRDRTDEKPRYVHTLNSTAIATSRAIVAILENHQEEDGTVRIPKVLWKYTGFKEIVPVEKKERCCAT,soluble
5,GPGSMHVSSPQRAKSEASQPPNGSPPLSSSEPAAVHLYDLDTVFLSKTVISLTDVFTNSTDGPFDLSPLCAPQQQGVEEQQRLQQAAATTASSPSTGDAHCSPSSGATHAHMCSTSLPFSGGSTLRPKAVARGADGQWRTVSTDRGAPASSAFTTACNKPPSQEAHARMLLVPLDSYHFLLTYHDVDVAGQLRGRCDKQTAMATMERLSAASPGCRPPRSGICVVRRLEGEQRGATKASSAATAVLAGAASATRPTLSRIAHGLPLDAFDGWVRDYTVYGLSCNEAVLRAAWEDKARERAEGTLAMPAGAVVEVGESAAPGHESAGGGGSGEERRVTGGGNSRGDNVGGVHISVPPASGSSAEATVEGAAALAPQLSDAPSVLVPTDGAAVGEGKDAATFASPDAARAAMLSPSLDRLHCSSTTSSSSTATPTPSPPTERSEEGGKVGGTVSTTMSASPASTAAQQQQQQNDVLWEEERQRTQRAAAQLRHRFLVSDSAQHALWALEVHLPAMKVRAVSPAEFYALEVEESDEERCQQLPGTARMMATMVTMKHRRHAALQKHERILLMHLHRDWRFLAGRQRLQSRAAARPSQVTATLSRARPAPTHRGRARHRRQIR,soluble
6,MDLGSFGRIPPQNIEAEQSVLGAILLDKEVLSSVTEIISSQDFYREDHREIFEAIMDLYEKGEPIDLITVAEQLKVRGSLEAVGGLEYLTNLASLVPTTANAKHYAKIVEEKSILRRLIKASSEIINMGYEAAEEVSYVLDKAEKSIFDVLQKRNTQGFALIKDVLIDTFNRLEELYNNKGYITGIPTGFVDLDYKTAGLQNSDLILIAARPAMGKTSFVLNIAQYAAIHAKVPVAIFSLEMSKEQLVNRMLCCEAMVDSQKMRTGKLEDSDWQKVARALGPLSEAPIYIDDTPGLSVAEIRAKCRRLKLEKNLGLVVIDYLQLMQGRGKSESRQQEISEISRSLKILAKEINVPVLTLSQLSRAPELRSDHRPILSDLRESGAIEQDADIVMFLYRDDYYNPDTEKKNIAEVIIAKHRNGSTGTVELAWLGQYTKFANLEKYRQ,not soluble
7,MGSDKIHHHHHHMKSPCILLIIVCTLSLTGCASTKQADSDSSLGKAQQTLDSLYQHYSAKDSYLLRENYPFNEQYKVTYLASENQTNMPNQFSYLWPYSGTFSAVNSLLEATHDKKYQQLLEKQVLPGLEEYFDTERTPIAYSSYIRTAPTSDRFYDDNIWVGIDFIDIYQITKEKKYLDKAQLIWNFIESGTDSLLGDGIYWCEQKKESKNTCSNAPGSVFALKLFKATNDSLYFKRGKELYKWTQKNLQDSTDYLYFDNIRLDGKIGKAKFAYNSGQMMQSAALLYQLTKNPDYLKDAQSIAKECYNYFFTDFTTDTGESLKMLKQGNIWFTAVMLRGFIELYQLDQNKTFIDAFNQCLSYAWDNARDENGLFSTDLTGNNNNEKKWLLTQAAMVEMYSRLATIQ,not soluble
8,MTSVNLSYPIGEYKPRESISKEQKDKWIQVLEEVPAKLKQAVEVMTDSQLDTPYRDGGWTVRQVVHHLADSHMNSYIRFKLSLTEETPAIRPYDEKAWSELKDSKTADPSGSLALLQELHGRWTALLRTLTDQQFKRGFYHPDTKEIITLENALGLYVWHSHHHIAHITELSRRMGWS,soluble
9,MLKIISGKYRNQIIPTAKNIKYRPSTGKLKEAIFSILTSGEFTGNKLFNENTHILDLFAGSGSLAFESLSRGAGFATLIDIDTSSLKIAEGFAKSLNIENNVNFVNINALNLPKATRHLFKPAYREGSKGDTEHSTAAYTLVREDASTGSTFKLPLEAKFGKMSNKSFDLVFIDPPYHKNIVPKVMKLLIKNNWLKDGAIIVIEMAKTDDYILDENIEIIREKLYGKSKLLVLSFTVIPAKAGIQ,not soluble
10,MQVEQRTLNTAAHPFQITAYWLDQISDFETAVDYPIMIICPGGGFTYHSGREEAPIATRMMAAGMHTVVLNYQLIVGDQSVYPWALQQLGATIDWITTQASAHHVDCQRIILAGFSAGGHVVATYNGVATQPELRTRYHLDHYQGQHAAIILGYPVIDLTAGFPTTSAARNQITTDARLWAAQRLVTPASKPAFVWQTATDESVPPINSLKYVQAMLQHQVATAYHLFGSGIHGLALANHVTQKPGKDKYLNDQAAIWPQLALRWLQEQGLLAGNYLEHHHHHH,soluble
11,MRANIWQILSVSVLFFFGTAIGQAQSRNRTYEAYVKQYADEAIRQMSRYNIPASITIAQALVETGAGASTLASVHNNHFGIKCHKSWTGKRTYRTDDAPNECFRSYSAARESYEDHSRFLLQPRYRPLFKLDREDYRGWATGLQRCGYATNRGYANLLIKMVELYELYALDREKYPSWFHKSYPGSNKKSHQTTKQKQSGLKHEAYFSYGLLYIIAKQGDTFDSLAEEFDMRASKLAKYNDAPVDFPIEKGDVIYLEKKHACSISKHTQHVVRVGDSMHSISQRYGIRMKNLYKLNDKDGEYIPQEGDILRLR,not soluble
12,MAMNLLEDWCRGMEVDIHRSLLVTGIPEDCGQAEIEETLNGVLSPLGPYRVLNKIFVREENVKAALIEVGEGVNLSTIPREFPGRGGVWRVVCRDPTQDAEFLKNLNEFLDAEGRTWEDVVRLLQLNHPTLSQNQHQPPENWAEALGVLLGAVVQIIFCMDAEIRSREEARAQEAAEFEEMAAWALAAGRKVKKEPGLAAEVGSALKAETPNNWNATEDQHEPTKPLVRRAGAKSRSRRKKQKKNSRQEAVPWKKPKGINSNSTANLEDPEVGDAESMAISEPIKGSRKPCVNKEELALKKPMAKCAWKGPREPPQDARAEAESPGGASESDQDGGHESPPKKKAVAWVSAKNPAPMRKKKKVSLGPVSYVLVDSEDGRKKPVMPKKGPGSRREASDQKAPRGQQPAEATASTSRGPKAKPEGSPRRATNESRKV,soluble
13,MAHHHHHHMVLTSDRGWPYSWERGESGILPDCYLNSEVERVWQIVKKDLTKLFSSHGKNKPSCHPRVLIGTPGIGKSMNVGSYLLYQLLHYDVEQLPMVVYFIANLTFLFDKTAKMVSLYTNEASILRILDGLPDRGFKGHIIYDVAMKGHQPSIGLPCKGWGMIVVTPPDKNNHEWWAKQMGAEEFIINCPEENDVRAMCIWMKRNRPLQEQAEYWKEVNGRMNKVGPILRFIFGKQAYDDRIKACQQALDGMNASKFEGYLDIGYCCVSNDSDLSRKLVKVVRVRRGYNFASPLNVLISPHLERETLSRLEDGMKQSDFIFFVLRFWDYVPPYLIEKYAVSAFLNDDFLRAIRLKIKELWPPGRRESHRCALKEHSDTSFARKEVLPPPERLSNPVAMDHWVLYEPKVQNFPLVDGFFFVDSNPKTLVGLRMTTAGGHRTTTRTVRRFTE,not soluble
14,MSTEPLVVGAVAYTPNVVPIWEGIRGYFQDSESPDTQMDFVLYSNYARLVDSLIAGHIDIAWNTNLAYVRTVLQTGGRCTPLAQRDTDVDYTTVFVAHAGSDLHGAKDIAGKRLALGSADSAHAAILPLYYLRRAGIAESDLQVIRFDTDIGKHGDTGRSELDAVDAVLAGEADVAAIGSSTWAAMGAAELMGESLTEVWRTDGYCHCMFTALDTLPAERYQPWLDRLLAMSWDDSEHRKILELEGLRRWVPPHLDGYKPLFEAVQEQGIDPRW,not soluble
15,MGHHHHHHQQIMKGNFSSFMQKEIFEQPESVVNTMRGRVNFDDYTVNLGGLKDHIKEIQRCRRLILIACGTSYHAGVATRQVLEELTELPVMVELASDFLDRNTPVFRDDVCFFLSQSGETADTLMGLRYCKERGALTVGITNTVGSSISRETDCGVHINAGPEIGVASTKAYTSQFVSLVMFALMMCDDRISMQERRKEIMLGLKRLPDLIKEVLSMDDEIQKLATELYHQKSVLIMGRGYHYATCLEGALKIKEITYMHSEGILAGELKHGPLALVDKLMPVIMIIMRDHTYAKCQNALQQVVARQGRPVVICDKEDTETIKNTKRTIKVPHSVDCLQGILSVIPLQLLAFHLAVLRGYDVDFPRNLAKSVTVE,soluble
16,MELFLTGVVLKPKGLKGELKVKPVTDFPESFLTRREYYIGKTPEDAVLRKVQSARFHQGFAWLVFEGAGSREGAEALVGCGLYVTRDALVAMPDDRAYIHELIGLDVFDETEGRVGKISDVLQMPAHDVYEVDTGDRKVLIPAVEDFITETDLEKGMVRLKRFKEFLLEHHHHHH,soluble
17,MHKAILNSDLIATKAGDVTVYNYDGETREYISTSNEYLAVGVGIPACSCLDAPGTHKAGYAICRSADFNSWEYVPDHRGETVYSTKTGESKEIKAPGDYPENTTTIAPLSPYDKWDGEKWVTDTEAQHSAAVDAAEAQRQSLIDAAMASISLIQLKLQAGRKLTQAETTRLNAVLDYIDAVTATDTSTAPDVIWPELPEA,not soluble
18,GPGSMYVGCVGKDKHGDQIRSAAEADGTTMELEVSSDKRSGLCVVCRDGNSRTLVVHPSSASSLRDDFVSSAAAQEGQRSAKTVYTTAYASVVRVRQTLQLMTSSRCHTLPDGLKQLAAMGLANQRVLDDFGEGLVDVLGKLDIIIGNPEEMYDLAMMLQWVPSEMSDMVLAKKIATEMMCDRHGVRRVIMTRGAEPIIYAASAGESGEVPVVATCAHSAKLLATGAGDAFAGGFLAAMAAKPDDVAFCCRLSAQAATFMINHSLVTLRTDEACLAELQT,not soluble
